Reference: the DeepSol protein solubility set

Assay: soluble on expression in E. coli; label from the status in PepcDB or PDB records

Sequence | soluble on expression in E. coli
MKITLIIPTYNAGSIWPNVLDAIKQQTIYPDKLIVIDSGSKDETVLLASDLKNISIFNIDSKDFNHGGTRNLAVTKTLDADVIIFLTQDAILADSDAIKNLVYYFSDPLIAAVCGRQLPHKDANPLAVHARNFNYSSKSIVKSKADIEKFGIKTVFMSNSFAAYRRSVFEELSGFPEHTILAEDMFMAAKMIQAGYKVAYCAEAVVRHSHNYTPREEFQRYFDTGVFHACSPWIQRDLGGAGGEGFRFVKSEIQFLLKNAPFWIPRALLTTFAKFLGYKLGKHWQSLPLSTCRYFSMYKSYWNNIQYSSSKEIKLEHHHHHH | not soluble
MFKHDCQFEDLRIIAQRVNPLDPTWNEWTLVACQKCKMLKEWQHHSEEQMHGGDLHITALPTHDYLHHIYGIVESDVDLILTHQKKARRYNRYTNAVEEHDV | not soluble
MGSDKIHHHHHHMEPVYFTSPTRGRLTEDEMFADMMQFVDANPEAQYKIIIGSDSQARVRTCFVTAVIVHQVGRGARYYYRKKYQRKITSLRQKIFYETALSLETASFIAQRLAANGHADLNVEIHLDIGPNGETRDLIREIVGMVVGSGFAAKIKPYSCGASKVADKYTKSG | not soluble
MAEAVITLTEAAAFQIKDMMKEQEEEGAYLRVGVHGGGCSGLSYGMGFDHERRDDDIEFEQHGIKILVDRDSAPILRGTVIDYKQSLLGGGFTINNPNAIATCGCGSSFRTATNAGTPEQC | soluble
MSQRIIQPSASDQQFPGKSDGYEYTVGPKQAITSEASTTYIPSRIYSESLLFKRQEASLSAMAFLFQEMISQLHRTCKTAGDFETKLSDYGHNIGIRLLELLNFRASVSPSSLPRASAFLSQNESSSKLSNASNSPGMLANSSTATSASANERLQEKQTESLSNYITKMRRRDLKILDILQFIHGTLWSYLFNHVSDDLVKSSERDNEYMIVDNFPTLTQFIPGENVSCEYFVCGIIKGFLFNAGFPCGVTAHRMPQGGHSQRTVYLIQFDRQVLDREGLRFG | soluble
MAIKFQYNKTSLQQQEKQLKMRERTLPTIKSKESALRLEVKRTKDEVERLERQLEEEIVGYRSMVSLWNEFKPDLISVEGVKLSAKKVAGVVVPVLDDISYTIKPFSLFNAPSWFAEGIDLLKNLAHTGIEAEFLGLKLEFLEYARKKTTQKVNLFEKVQIPGYKDAIRKIKRYLEDEESLSKSSQKIMRANMEKRNKGEEVMA | not soluble
GMEKRLDYITDLMALGPTANARTIQRRQTAHRLAIAEAWQVKPGEKILEIGCGQGDLSAVLADQVGSSGHVTGIDIASPDYGAPLTLGQAWNHLLAGPLGDRLTVHFNTNLSDDLGPIADQHFDRVVLAHSLWYFASANALALLFKNMAAVCDHVDVAEWSMQPTALDQIGHLQAAMIQGLLYAIAPSDVANIRTLITPDTLAQIAHDNTWTYTAGTIVEDPTLDDAHWEIATTNALLTELKLSTDLRDRVKPLLEAMSHNGTASLATFTGRITF | soluble
MSDYENDDECWNVLEGFRVTLTSVIDPSRITPYLRQCKVLNPDDEEQVLSDPNLVIRKRKVGVLLDILQRTGHKGYVAFLESLELYYPQLYKKVTGKEPARVFSMIIDASGESGLTQLLMTEVMKLQKKVQDLTALLSSKDDFIKELRVKDSLLRKHQERVQRLKEECEAGSRELKRCKEENYDLAMRLAHQSEEKGAALMRNRDLQLEIDQLKHSLMKAEDDCKVERKHTLKLRHAMEQRPSQELLWELQQEKALLQARVQELEASVQEGKLDRSSPYIQVLEEDWRQALRDHQEQANTIFSLRKDLRQGEARRLRCMEEKEMFELQCLALRKDSKMYKDRIEAILLQMEEVAIERDQAIATREELHAQHARGLQEKDALRKQVRELGEKADELQLQVFQCEAQLLAVEGRLRRQQLETLVLSSDLEDGSPRRSQELSLPQDLEDTQLSDKGCLAGGGSPKQPFAALHQEQVLRNPHDAGLSSGEPPEKERRRLKESFENYRRKRALRKMQKGWRQGEEDRENTTGSDNTDTEGS | soluble
ITDNTLIRNDTGDGDAVYDLVLNADGLDEDYSYQLKVMEEQPSDKQANELFTQAKKEIDDSFCEENQSVEQVRGHVIMKDAYASGAVEAEWTLSDYDVVDINGDVNQDAFEEADDEQGKLISASVELSCGEHRQLYDFSFVVFPDELEAGERLIKDINRHIDSEMSKTGTKKLTLPDEVDGVKLSWSQEKSNTAAKIAMLEVVVIVLLVLEKKEKKKTAQKERNIQLQLEYPEIVSKMAVLMGSGMTVEQAWNRITARYLDERKNNDKNIMPAYEEMLVTEREISDGVTGRKAYAGFAERVKLPCYQKLVRIILQSIHKGSKGVCEMLEKESEDAFDERRLLALKLGEEAGTKM | not soluble
MGSSHHHHHHSSGLVPRGSHMASERPVSTLSSQITGELRELNPQATGSSTSLVGQSLFQHSSLDTSQFGLNASIAEVLNASFKDGMLQNSQLIGEIALNYLPNSVMNSPLPIGINLRINNGAKFEKVILNQAFIERVAPEEFKVNPSFIDSRTLGAIKYSIKEPIAPIVIHPVWRFESHQASVVLTVKMSPSLPDEISQIVIEDLVVFVNIDGANATSALSKPQGSFSKEKKRITWRFKEPVVLTRNGEGQRLIARFITDGLAHESAKGVITKFTISETDNVALPHSGAGSGITLTCQELDENNPFGGEWLDVNTKRTLTTGNYHGLA | soluble
MGSDKIHHHHHHDEEPKSTLTDVAYYKTQSQMESNVNYLYRTGAIGSYVDFGSAYIGPFASIQEELTGYFSNSYEGQEIVCRYTRELTRQQNTMQLASKMDKVWDDCYRGINVANGAIKHMPEVPMDQATADRLTAEAKFFRAFNYFYLVKTFGAVPFYTDPYELAENMELPRTETSTIYNQIESDLKDAMNVLPEATFAANGHRITKYVAAMTLTDVYMYQHKYAEAAETVRIVVNSNHKLTTNDDLAMNSAFNKLRSTDDLDEAIYAYEYDNQISPSNWLPTYAFDGDASSNGLFGTYAITQKVHGPNDRYLNIYESNDLRRQPNQFYHWTYTNPKTGKVWNSVGNAACCWYYYDEDALLTTGRGTKDWNVYRYAEALLDAAESIAQSTGVTAEAAGYLAQVKARANMEGKTAAEIASSLQSMGKQAFIEECWTERLRELPLEFKMWDMCVRTGMFPNISETTPGQVTYIPLVGAKNASGATIKESDLLWPLSVNEIQRNPSLTQNEGYSAK | not soluble
SLSCRKEQGKFYDHLLRDCISCASICGQHPKQCAYFCENKLR | soluble
MKQRHGNSLLTTDTKCISCRLGVPLSPQRRFQAIRIEEVKLRWFAFLIVLLAGCSSKHDYTNPPWNAKVPVQRAMQWMPISQKAGAAWGVDPQLITAIIAIESGGNPNAVSKSNAIGLMQLKASTSGRDVYRRMGWSGEPTTSELKNPERNISMGAAYLNILETGPLAGIEDPKVLQYALVVSYANGAGALLRTFSSDRKKAISKINDLDADEFLDHVARNHPAPQAPRYIYKLEQALDAM | not soluble
MAQYRPDELARYAQRVMDWLHPDGDLTDTERARKRGITLSNQQYDGMSRLSGYLTPQARATFEAVLAKLAAPGATNPDDHTPVIDTTPDAAAIDRDTRSQAQRNHDGLLAGLRALIASGELGQHNGLPVSIVVTTTLTDLQTGAGKGFTGGGTLLPMADVIRMTSHAHHYSPASGRYPQAIFDHGTPLALYHTKRLASPAQRIMLEHHHHHH | soluble
MSLRKNIFFIVFIILCAVSCTEKKSNFINTVHLKGQLLDMGSQNVRMRFDGAASMLGDSRDILLKTDAAGYFDTTFVLKEPTYYTISRNTLYLTPGDDMTIKVTQTNTEAEFSGIGAEANNYMKFRLFPKGGSYLEAGGNLRGDFVSTKALVDSLAAIRMHTLDTLSNVSDAFKKLETARIKADIINSYICYASYSRMFAEVKNEEEMRAKWNEFNVSLTQDVTPLYKEIVNEDMLNVAVVRDVLSYQEDSTLASLWFKDISIPARTTELYACAKIVDNLRNEASEQTVNEAKAFLQTVKNADFATEIEGKIVQASKLLPGQPAIDFEMLDVEGNVKHLADFKGKVIYIDLWATWCGPCIQESPAFEALGKKYVGKDIVFLPVSTDTTTKPWLRYLDGHKKELTQYHSNDVALKESWAIMYIPRFILIDKDFNIVNAYAPRPSSEEIGTLIDSVLNKEGHHHHHH | soluble
MANEQVLTAEQVLEKASQYLVDEDIELVARAYEYARDAHSEQYRKSGEPYIIHPIQVAGVLVDLHMDPATVSAGFLHDVVEDTEITLEDIEREFNKEIAMLVDGVTKLGKIKYKSHEQQQAENHRKMFIAMAQDIRVILIKLADRLHNMRTLKHLPQEKQRRIANETLEIFAPLAHRLGISTIKWELEDTSLRYLNPQQYYRIVNLMKRKRAEREEYLDEVMTGIREKLDEVAIQPEISGRPKHIYSIYRKMALQNKQFNEIYDLLAVRVVVNSIKDCYAVLGIIHTCWKPMPGRFKDYIAMPKANLYQSLHTTVIGPKGDPLEVQIRTKEMHEIAEFGIAAHWAYKEGKTAETTGTLEKKLTWFRQILEWQNEASNAEEFMESLKIDLFSDMVFVFTPKGDVMELPLGSVPIDFAYRVYSEIGNKTIGAKVNGKMVTLDYKLKTGDIIEILTSKHSYGPSQDWVKLAQTSHAKNKIRQFFKKQRRDENIEKGRELVEKEVRSLEYEMKEVLAPDNLKRVAEKFNFANEEDMFAAVGYNGITASQIVTRLTDKFRKQREEEEIVEVKEVRKPMKIRKWDSGVKVSGADNLLIRLSKCCNPVPGDDIVGYITKGRGVSIHRRDCVNVHTEEAIERLLEVEWEGSPEKEIEYNVDIEISGYDRRGLLNEVLQAVTETKTYISAVSGRSDRNKMATINMSISIRNLQHLKKVVERIKRVPEIYAVRRMMH | not soluble
MVAHDETGGLLPIKRTIRVLDVNNQSFREQEEPSNKRVRPLARVTSLANLISPVRNGAVRRFGQTIQSFTLRGDHRSPASAQKFSSRSTVPTPAKRRSSALWSEMLDITMKESLTTREIRRQEAIYEMSRGEQDLIEDLKLARKAYHDPMLKLSIMSEEELTHIFGDLDSYIPLHEDLLTRIGEATKPDGTVEQIGHILVSWLPRLNAYRGYCSNQLAAKALLDQKKQDPRVQDFLQRCLESPFSRKLDLWSFLDIPRSRLVKYPLLLKEILKHTPKEHPDVQLLEDAILIIQGVLSDINLKKGESECQYYIDKLEYLDEKQRDPRIEASKVLLCHGELRSKSGHKLYIFLFQDILVLTRPVTRNERHSYQVYRQPIPVQELVLEDLQDGDVRMGGSFRGAFSNSEKAKNIFRIRFHDPSPAQSHTLQANDVFHKQQWFNCIRAAIAPFQSAGSPPELQGLPELHEECEGNHPSARKLTAQRRASTVSSVTQVEVDENAYRCGSGMQMAEDSKSLKTHQTQPGIRRARDKALSGGKRKETLV | soluble
METLIAISRWLAKQHVVTWCVQQEGELWCANAFYLFDAQKVAFYILTEEKTRHAQMSGPQAAVAGTVNGQPKTVALIRGVQFKGEIRRLEGEESDLARKAYNRRFPVARMLSAPVWEIRLDEIKFTDNTLGFGKKMIWLRDSGTEQA | soluble
MGVETLNKVFKIAKKFYTDIRYYSFQLACIHLGETFSRYTKFNLADKYYLKKDKIVLNYLRTRYTNSPKQDVYGGVPKIYQPIWVFWYQGEEQMPKLVSACLKSVRNNANGHEVILISKENMNNYIEIPDVIRDRVESKKISMAQYSDIIRMCLLAEYGGLWIDATVLVTQLIPQYIFELPLFTIKNSPNQEDPLYFISVSHLRWTTYVMGGEPNNALFTFVRDLLIEYNSVENALIDYLLIDYAIELAIEKNSSISDDMIKIPINNQLKEEFVHRLFSVYPDCKTKELLQSGTIFFKLSYKKVAPKVIEKNNYQLLVDGDLCQAYNMGNLEHHHHHH | not soluble
